In assay [1] the target is T1, peptide with N-terminal histidine.
T1 construct: also called peptides with N-terminal histidine residues
Kind of assay: biolayer interferometry kinetics; reference: truncated wild-type HisRS fragment.

For assay [2] the target is unchanged. Kind of assay: biolayer interferometry (Blitz), peptide-coated sensor, NAAB in 1x PBS, 1:1 fit, kd/ka.
In assay [3] the target is peptide with N-terminal lysine. The assay is described as above.
The target of assay [4] is peptide with N-terminal valine. Described as above.

B1: engineered HisNAAB (3-180) (designed binder)
chain: KNIQAIRGMNDYLPGETAIWQRIEGTLKNVLGSYGYSEIRLPIVEQTPLFKRAIGEVTDVVEKEMYTFEDRNGDSLTLRPEGTAGCVRAGIEHGLLYNQEQRLWYIGPMFGNAPQFHQLGCEVFGLQGPDIDAELIMLTARWWRALGISEHVTLELNSIGSLEARANYRDA
B1: the “fold improvement in binding affinity against the wild-type fragment” value in assay [1] was roughly 10 fold. The Kd in assay [2] came out at 98.7 µM.

B2: LysNAAB (enzyme)
chain: ANDKSRQTFVVRSKILAAIRQFMVARGFMEVETPMMQVIPGGASARPFITHHNALDLDMYLRIAPELYLKRLVVGGFERVFEINRNFRNEGISVRHNPEFTMMELYMAYADYHDLIELTESLFRTLAQEVLGTTKVTYGEHVFDFGKPFEKLTMREAIKKYRPETDMADLDNFDAAKALAESIGITVEKSWGLGRIVTEIFDEVAEAHLIQPTFITEYPAEVSPLARRNDVNPEITDRFEFFIGGREIGNGFSELNDAEDQAERFQEQVNAKAAGDDEAMFYDEDYVTALEYGLPPTAGLGIGIDRMIMLFTNSHTIRDVILFPAMRP
notes: Purified on GSTrap; also called Lysine
Take B2: the affinity in assay [3], expressed as Kd, was 2.61 µM.

B3: ValNAAB (enzyme)
chain: MEKTYNPQDIEQPLYEHWEKQGYFKPNGDESQESFCIMIPPPNVTGSLHMGHAFQQTIMDTMIRYQRMQGKNTLWQVGTDHAGIATQMVVERKIAAEEGKTRHDYGREAFIDKIWEWKAESGGTITRQMRRLGNSVDWERERFTMDEGLSNAVKEVFVRLYKEDLIYRGKRLVNWDPKLRTAISDLEVENRESKGSMWHIRYPLADGAKTADGKDYLVVATTRPETLLGDTGVAVNPEDPRYKDLIGKYVILPLVNRRIPIVGDEHADMEKGTGCVKITPAHDFNDYEVGKRHALPMINILTFDGDIRESAQVFDTKGNESDVYSSEIPAEFQKLERFAARKAVVAAIDALGLLEEIKPHDLTVPYGDRGGVVIEPMLTDQWYVRADVLAKPAVEAVENGDIQFVPKQYENMYFSWMRDIQDWCISRQLWWGHRIPAWYDEAGNVYVGRNEEEVRKENNLGADVALRQDEDVLDTWFSSALWTFSTLGWPENTDALRQFHPTSVMVSGFDIIFFWIARMIMMTMHFIKDENGKPQVPFHTVYMTGLIRDDEGQKMSKSKGNVIDPLDMVDGISLPELLEKRTGNMMQPQLADKIRKRTEKQFPNGIEPHGTDALRFTLAALASTGRDINWDMKRLEGYRNFCNKLWNASRFVLMNTEGQDCGFNGGEMTLSLADRWILAEFNQTIKAYREALDSFRFDIAAGILYEFTWNQFCDWYLELTKPVMNGGTEAELRGTRHTLVTVLEGLLRLAHPIIPFITETIWQ
notes: Purified on GSTrap; also called Valine
In assay [4], B3 showed a Kd of 1.22 µM.

(Values after patent US20210072252A1 (WASHINGTON UNIVERSITY, published 2021).)
